Assays:
[1] = target: T1, human FGFR4 extracellular domain (FGFR4-ECD) (human, UniProt P22455 22-369); test: SPR (BIACORE), mAb immobilized on the chip, FGFR4-ECD in solution
T1 construct: extracellular domain; also called hFGFR4-ECD
T1 sequence (looked up): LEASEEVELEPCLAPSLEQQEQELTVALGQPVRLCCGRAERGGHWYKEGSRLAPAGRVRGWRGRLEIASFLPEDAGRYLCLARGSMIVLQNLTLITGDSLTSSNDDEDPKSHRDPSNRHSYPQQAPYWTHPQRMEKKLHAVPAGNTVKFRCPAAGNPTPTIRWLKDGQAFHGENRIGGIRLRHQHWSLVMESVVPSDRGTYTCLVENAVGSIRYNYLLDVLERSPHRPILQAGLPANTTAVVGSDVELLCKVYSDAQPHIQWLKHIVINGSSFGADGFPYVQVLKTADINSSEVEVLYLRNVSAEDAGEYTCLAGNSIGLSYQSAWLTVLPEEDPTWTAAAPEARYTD
Procedure: (§1) The affinity of two of the FGFR4-specific mAbs was tested using surface plasmon resonance.
(§2) The mAb was immobilized in a CMS chip and the binding of FGFR4 extracellular domain (FGFR4-ECD) was detected by measuring surface plasmon resonance in a BIACORE™ instrument

[2] = target: T1, human FGFR4 extracellular domain …; test: SPR (BIACORE), mAb immobilized on the chip, FGFR4-ECD in solution; 'Observed KD'
Procedure: as §1, §2

[3] = target: T1, human FGFR4 extracellular domain …; test: SPR (BIACORE), mAb immobilized on the chip, FGFR4-ECD in solution; column head prints 10^4, read as 10^-4 because that agrees with the printed kon and KD
Procedure: as §1, §2

B1: 29.2 rabbit anti-FGFR4 mAb (antibody, V domains shown)
VH: QSVKESEGRLVTPGTPLTLTCTVSGFSLSSNSVGWVRQAPGKGLEWIGIISSSGNRYYASWAKGRFTISKTSTTVDLKITSPTTEDTATYFCGGDPVSWYGDIWGPGTLVTVSS
VL: ELVLTQTPSSVSAAVGGTVTINCQSSPSLYKNNYLSWYQQKPGQPPKLLIYSASTLASGVPSRFKGSGSGTEYTLTISGVQCDDAATYYCLGGYSLSSDSPRAFGGGTEVVVK
[1]
  kon: 25000 M⁻¹ s⁻¹
[2]
  Kd: 17 nM
[3]
  koff: 0.00043 s⁻¹

B2: 57.1 rabbit anti-FGFR4 mAb (antibody, V domains shown)
VH: QSVKESEGRLVTPGTPLTLTCTVSGFSLSTYAMSWVRQAPEKGLEWIGIIYATAETYYATWARGRFTISKTSTTVDLKITSPATEDTATYFCARLNGDGSGTYAYDIWGPGTLVTVSS
VL: ELVMTQTPSPVSAAVGGTVTINCQASQSISSSYLSWYQQKPGQPPKLLIYKASTRPSGVSSRFKGSGSGTQFTLTISGVQCADAATYYCLYGYYIDSGADNSFGGGTEVVVK
[1]
  kon: 1700 M⁻¹ s⁻¹
[2]
  Kd: 110 nM
[3]
  koff: 0.00018 s⁻¹
